Laboratory results: paper PMC2212017

Biological target: T1, TRPV2 (transient receptor potential vanilloid 2), endogenous in RBL2H3 mast cells (rat (endogenous in RBL2H3)), Q9WUD2
T1 chain: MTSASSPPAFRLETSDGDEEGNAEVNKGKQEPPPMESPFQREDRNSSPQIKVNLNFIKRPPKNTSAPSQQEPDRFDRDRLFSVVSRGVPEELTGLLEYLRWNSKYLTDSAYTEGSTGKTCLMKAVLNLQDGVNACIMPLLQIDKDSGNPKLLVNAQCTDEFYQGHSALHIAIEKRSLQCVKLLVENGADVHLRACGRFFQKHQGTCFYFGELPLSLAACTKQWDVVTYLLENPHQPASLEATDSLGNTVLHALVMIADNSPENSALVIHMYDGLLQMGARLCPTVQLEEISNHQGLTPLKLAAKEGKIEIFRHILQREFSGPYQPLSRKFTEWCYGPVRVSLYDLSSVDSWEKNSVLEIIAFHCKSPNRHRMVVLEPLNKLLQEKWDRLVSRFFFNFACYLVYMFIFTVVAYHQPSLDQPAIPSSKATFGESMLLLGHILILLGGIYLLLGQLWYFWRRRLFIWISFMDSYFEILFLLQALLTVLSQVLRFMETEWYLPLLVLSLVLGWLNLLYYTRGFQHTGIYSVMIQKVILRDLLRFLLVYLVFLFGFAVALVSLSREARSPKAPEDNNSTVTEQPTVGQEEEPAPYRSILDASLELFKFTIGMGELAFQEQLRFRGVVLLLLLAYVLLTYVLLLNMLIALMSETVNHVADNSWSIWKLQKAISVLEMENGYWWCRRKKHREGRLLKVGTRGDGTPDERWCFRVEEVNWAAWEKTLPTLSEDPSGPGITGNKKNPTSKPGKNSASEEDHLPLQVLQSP
Assay: native gel or EMSA
Conditions: remark: other sources report otherwise

B1: TRPV2 (transient receptor potential vanilloid 2), endogenous in RBL2H3 mast cells, Q9WUD2 1-761 (natural protein)
chain: MTSASSPPAFRLETSDGDEEGNAEVNKGKQEPPPMESPFQREDRNSSPQIKVNLNFIKRPPKNTSAPSQQEPDRFDRDRLFSVVSRGVPEELTGLLEYLRWNSKYLTDSAYTEGSTGKTCLMKAVLNLQDGVNACIMPLLQIDKDSGNPKLLVNAQCTDEFYQGHSALHIAIEKRSLQCVKLLVENGADVHLRACGRFFQKHQGTCFYFGELPLSLAACTKQWDVVTYLLENPHQPASLEATDSLGNTVLHALVMIADNSPENSALVIHMYDGLLQMGARLCPTVQLEEISNHQGLTPLKLAAKEGKIEIFRHILQREFSGPYQPLSRKFTEWCYGPVRVSLYDLSSVDSWEKNSVLEIIAFHCKSPNRHRMVVLEPLNKLLQEKWDRLVSRFFFNFACYLVYMFIFTVVAYHQPSLDQPAIPSSKATFGESMLLLGHILILLGGIYLLLGQLWYFWRRRLFIWISFMDSYFEILFLLQALLTVLSQVLRFMETEWYLPLLVLSLVLGWLNLLYYTRGFQHTGIYSVMIQKVILRDLLRFLLVYLVFLFGFAVALVSLSREARSPKAPEDNNSTVTEQPTVGQEEEPAPYRSILDASLELFKFTIGMGELAFQEQLRFRGVVLLLLLAYVLLTYVLLLNMLIALMSETVNHVADNSWSIWKLQKAISVLEMENGYWWCRRKKHREGRLLKVGTRGDGTPDERWCFRVEEVNWAAWEKTLPTLSEDPSGPGITGNKKNPTSKPGKNSASEEDHLPLQVLQSP
stoichiometry N: 4
